Measurements reported in article PMC3920732.
Where “and” joins values, the source holds several entries; their conditions need not be identical. Identical values can stand only once.

Target: α7/5HT3A chimaeric receptor (control, non-mutant)
Experiment: radioligand binding

## 125I-labelled α-bungarotoxin (from UniProt P60615 22-95) (natural protein)
  Kd: 11.5 nM and 12.2 nM and 8.1 nM
